We go through one molecule from paper PMC7125119, “An oncopeptide regulates m6A recognition by the m6A reader IGF2BP1 and tumorigenesis”.

In this data set the target is IGF2BP1-Flag (recombinant);RBRP-Flag WT (Homo sapiens?;Homo sapiens, UniProt Q9NZI8;C0HM01 1-577;1-71, |). In words: EMSA; RBRP WT increases IGF2BP1 binding; Pull-down: 1 nmol biotin-RNA on streptavidin-agarose, nuclear extract, 30 C 30 min, immunoblot. EMSA: LightShift kit, 20 pmol RNA, 6 ug IGF2BP1-Flag, 2 ug RBRP, room temperature 30 min, then 0.2% glutaraldehyde (1 ul) on ice 15 min, 6% TBE gel; salt and binding pH not stated. To be noted: protein: recombinant;recombinant; label: biotin 5'; single strand. Background: Mobility shift assays separate free from complexed probe on a gel.
IGF2BP1-Flag (recombinant);RBRP-Flag WT, sequence (Q9NZI8 whole entry, chain 1 of 2): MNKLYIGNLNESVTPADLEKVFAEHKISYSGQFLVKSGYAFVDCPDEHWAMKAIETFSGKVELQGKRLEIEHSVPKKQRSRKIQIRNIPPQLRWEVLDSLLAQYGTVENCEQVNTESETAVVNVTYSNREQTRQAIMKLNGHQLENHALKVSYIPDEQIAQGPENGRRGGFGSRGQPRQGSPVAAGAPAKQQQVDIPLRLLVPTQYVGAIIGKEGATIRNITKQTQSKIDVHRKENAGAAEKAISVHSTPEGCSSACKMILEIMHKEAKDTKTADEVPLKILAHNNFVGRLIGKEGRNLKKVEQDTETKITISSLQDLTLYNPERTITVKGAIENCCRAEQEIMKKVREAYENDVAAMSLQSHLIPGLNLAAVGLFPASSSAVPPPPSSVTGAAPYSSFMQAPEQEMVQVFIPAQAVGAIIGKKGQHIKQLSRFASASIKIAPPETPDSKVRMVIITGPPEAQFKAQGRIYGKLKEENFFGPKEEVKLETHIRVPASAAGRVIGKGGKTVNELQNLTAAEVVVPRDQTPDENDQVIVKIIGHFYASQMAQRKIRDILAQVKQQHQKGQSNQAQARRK
IGF2BP1-Flag (recombinant);RBRP-Flag WT, sequence (C0HM01 whole entry, chain 2 of 2): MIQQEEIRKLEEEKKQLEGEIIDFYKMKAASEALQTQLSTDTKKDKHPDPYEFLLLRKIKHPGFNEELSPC

Take CGUCUCGGACUCGGACUGCU (ssRNA, m6A at 9 and 15) [ss-m6A]: the binding result was “binds”.
